Experiment [1] deals with factor Xa (UniProt P00742). Put plainly: cell-based or functional assay.
Experiment [2] concerns the target factor Xa (UniProt P00742). Put plainly: cell-based or functional assay. This is another data set of the same source.

Changes are numbered by the printed parent chain. Names may count otherwise. Where only a bound is given, the exact number is not on record here.

On to “antithrombin III (from UniProt P01008 33-464)”, for which the t1/2 of inhibition of factor Xa by antithrombin III with PZ, cephalin and Ca++ ions (bioassay) with factor Xa [1] came to 35 min.

On to “human protein Z (PZ), isolated from citrated fresh frozen plasma (from UniProt P22891 41-400)”, for which, in the experiment with factor Xa [1], the Apparent Inhibition (%) of factor Xa, one-stage coagulation assay; incubation factor Xa 15 sec, PZ 120 sec was determined as 70%; the Apparent Inhibition (%) of factor Xa, one-stage coagulation assay; incubation factor Xa 30 sec, PZ 120 sec was 71%; the Apparent Inhibition (%) of factor Xa, one-stage coagulation assay; incubation factor Xa 60 sec, PZ 120 sec came to 73%; the Apparent Inhibition (%) of factor Xa, one-stage coagulation assay; incubation factor Xa 90 sec, PZ 120 sec was 76%. Moreover, in the experiment with factor Xa [1], the Apparent Inhibition (%) of factor Xa, one-stage coagulation assay; incubation factor Xa 120 sec, PZ 0 sec stood at 0%; the Apparent Inhibition (%) of factor Xa, one-stage coagulation assay; incubation factor Xa 120 sec, PZ 15 sec came to 50%; the Apparent Inhibition (%) of factor Xa, one-stage coagulation assay; incubation factor Xa 120 sec, PZ 30 sec stood at 61%; the Apparent Inhibition (%) of factor Xa, one-stage coagulation assay; incubation factor Xa 120 sec, PZ 60 sec is 72%. Further, in the experiment with factor Xa [1], the Apparent Inhibition (%) of factor Xa, one-stage coagulation assay; incubation factor Xa 120 sec, PZ 90 sec came out at 76%; the Apparent Inhibition (%) of factor Xa, one-stage coagulation assay; incubation factor Xa 120 sec, PZ 120 sec was 78%; the Apparent Inhibition (%) of factor Xa, one-stage coagulation assay; incubation factor Xa 120 sec, PZ 120 sec w/o Ca++ worked out at 0%; the Apparent Inhibition (%) of factor Xa, one-stage coagulation assay; incubation factor Xa 120 sec, PZ 120 sec w/o cephalin came out at 0%. Also, in the experiment with factor Xa [1], the Apparent factor Xa inhibition by inclusion of PZ during preincubation, plasma treated with preimmune IgG (clotting time) was 76% and the molar ratio (PZ:factor Xa) from PZ dose/response of ZPI-mediated factor Xa inhibition, amidolytic assay (mol PZ per mol factor Xa) was 1.4.

For “tissue factor pathway inhibitor (TFPI) (from UniProt P10646 29-304)”, the inhibition of the chromogenic activity of the factor Xa preparations in the experiment with factor Xa [1] is over 99%.

Regarding “thrombin-cleaved PZ (PZT) (from UniProt P22891 84-400)”, the Apparent Inhibition (%) of factor Xa, one-stage coagulation assay; incubation factor Xa 120 sec, PZT 120 sec with factor Xa [1] turned out to be 0%.

B1: human protein Z-dependent protease inhibitor (ZPI), purified from human plasma (protein)
chain: LAPSPQSPETPAPQNQTSRVVQAPKEEEEDEQEASEEKASEEEKAWLMASRQQLAKETSNFGFSLLRKISMRHDGNMVFSPFGMSLAMTGLMLGATGPTETQIKRGLHLQALKPTKPGLLPSLFKGLRETLSRNLELGLTQGSFAFIHKDFDVKETFFNLSKRYFDTECVPMNFRNASQAKRLMNHYINKETRGKIPKLFDEINPETKLILVDYILFKGKWLTPFDPVFTEVDTFHLDKYKTIKVPMMYGAGKFASTFDKNFRCHVLKLPYQGNATMLVVLMEKMGDHLALEDYLTTDLVETWLRNMKTRNMEVFFPKFKLDQKYEMHELLRQMGIRRIFSPFADLSELSATGRNLQVSRVLQRTVIEVDERGTEAVAGILSEITAYSMPPVIKVDRPFHFMIYEETSGMLLFLGRVVNPTLL
modifications: Plasma glycoprotein with five potential N-linked glycosylation sites; the glycans are not carried by the letters.
In the experiment with factor Xa [2], B1 returned a Maximal factor Xa inhibition, amidolytic assay, reached within <1 minute (with PZ, Ca++ ions, cephalin) of 70%; a Maximal factor Xa inhibition, bioassay, reached within <1 minute (with PZ, Ca++ ions, cephalin) of 97%; a factor Xa amidolytic activity that persists at relatively high concentrations of ZPI of 20%; a stoichiometry (ZPI:factor Xa) from ZPI dose/response, factor Xa amidolytic assay with PZ, CaCl2 and cephalin (mol ZPI per mol factor Xa) of 1.2.

B2: rZPI(WT), recombinant wild-type ZPI expressed in CHO cells (protein, UniProt Q9UK55 22-444, looked up)
Protein Z-dependent protease inhibitor: B1 chain
In the case of B2, the ZPI activity of conditioned media, two-stage assay of PZ-dependent factor Xa inhibition with factor Xa [2] was 375 mU/mL.

B3: rZPI(Y387A), recombinant ZPI with tyrosine 387 changed to alanine (protein, UniProt Q9UK55 22-444 with Y387A, looked up)
Protein Z-dependent protease inhibitor: B1 chain with Y387A
For B3, the ZPI activity of conditioned media, two-stage assay of PZ-dependent factor Xa inhibition in the experiment with factor Xa [2] is under 10 mU/mL.

B4: rZPI(Y387R), recombinant ZPI with tyrosine 387 changed to arginine (protein, UniProt Q9UK55 22-444 with Y387R, looked up)
Protein Z-dependent protease inhibitor: B1 chain with Y387R
As for B4, in the experiment with factor Xa [2], the ZPI activity of conditioned media, two-stage assay of PZ-dependent factor Xa inhibition amounted to 21 mU/mL.

The record behind these values is patent US20040186053A1.
